Data published in patent US5688511, “Cellular protein TDP-43 and regulation of HIV-1 gene expression” (Board of Regents, The University of Texas System).

What was measured:
GST-TDP-43 (7-414) [1] = target: T1, GST-TDP-43 (7-414) (Homo sapiens, UniProt Q13148 SEQ:7-414); experiment: EMSA; 50 mM KCl, 5 mM MgCl2, room temperature; competed by 5-50x unlabeled WT; settings: tags: N-terminal GST; label: 32P
GST-TDP-43 (7-166) = GST-TDP-43 (7-166) (Homo sapiens, UniProt Q13148 SEQ:7-166); experiment: EMSA; only first RNP-1 retained; bound, affinity higher when both RNP1 and RNP2 present; settings: tags: N-terminal GST; label: 32P
GST-TDP-43 (7-198) = GST-TDP-43 (7-198) (Homo sapiens, UniProt Q13148 SEQ:7-198); experiment: EMSA; part of RNP domain deleted; still bound; settings: tags: N-terminal GST; label: 32P
[2] = target: T2, TDP-43 full length (thrombin-cleaved) (Homo sapiens, UniProt Q13148 SEQ:1-414); experiment: UV crosslinking, 43 and 86 kDa species, 160 or 800 ng protein; settings: tags: GST removed by thrombin; label: 32P
GST-TDP-43 (7-240) = GST-TDP-43 (7-240) (Homo sapiens, UniProt Q13148 SEQ:7-240); experiment: EMSA; glycine-rich domain deleted; bound like wild type; settings: tags: N-terminal GST; label: 32P
GST-TDP-43 (7-333) = GST-TDP-43 (7-333) (Homo sapiens, UniProt Q13148 SEQ:7-333); experiment: EMSA; glycine-rich domain truncation; bound like wild type; settings: tags: N-terminal GST; label: 32P
GST-TDP-43 (7-414) [3] = target: T1, GST-TDP-43 (7-414); experiment: competition; up to 50x excess did not compete; settings: tags: N-terminal GST
[4] = target: T2, TDP-43 full length (thrombin-cleaved); experiment: UV crosslinking; settings: tags: GST removed by thrombin
[5] = target: T2, TDP-43 full length (thrombin-cleaved); experiment: competition; 50x excess did not compete UV crosslinking; settings: tags: GST removed by thrombin
GST-TDP-43 (7-414) [6] = target: T1, GST-TDP-43 (7-414); experiment: competition; up to 50x excess did not significantly compete; settings: tags: N-terminal GST
GST-TDP-43 (7-414) [7] = target: T1, GST-TDP-43 (7-414); experiment: competition; up to 50x excess did not significantly compete; listed as -46/-13 in Example 8; settings: tags: N-terminal GST

T2 sequence (Q13148 whole entry, the tested form may be a part): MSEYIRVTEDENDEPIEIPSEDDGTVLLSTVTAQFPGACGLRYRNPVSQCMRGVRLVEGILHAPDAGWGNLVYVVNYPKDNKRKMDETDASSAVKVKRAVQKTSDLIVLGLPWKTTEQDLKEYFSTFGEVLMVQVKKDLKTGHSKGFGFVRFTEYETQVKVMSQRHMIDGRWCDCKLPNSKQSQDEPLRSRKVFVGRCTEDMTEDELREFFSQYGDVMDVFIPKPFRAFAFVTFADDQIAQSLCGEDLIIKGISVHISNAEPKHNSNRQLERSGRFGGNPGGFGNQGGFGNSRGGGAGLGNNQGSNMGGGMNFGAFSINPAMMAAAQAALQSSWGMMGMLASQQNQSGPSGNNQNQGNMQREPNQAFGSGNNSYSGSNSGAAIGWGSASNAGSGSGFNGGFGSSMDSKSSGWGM
T1 sequence (Q13148 7-414): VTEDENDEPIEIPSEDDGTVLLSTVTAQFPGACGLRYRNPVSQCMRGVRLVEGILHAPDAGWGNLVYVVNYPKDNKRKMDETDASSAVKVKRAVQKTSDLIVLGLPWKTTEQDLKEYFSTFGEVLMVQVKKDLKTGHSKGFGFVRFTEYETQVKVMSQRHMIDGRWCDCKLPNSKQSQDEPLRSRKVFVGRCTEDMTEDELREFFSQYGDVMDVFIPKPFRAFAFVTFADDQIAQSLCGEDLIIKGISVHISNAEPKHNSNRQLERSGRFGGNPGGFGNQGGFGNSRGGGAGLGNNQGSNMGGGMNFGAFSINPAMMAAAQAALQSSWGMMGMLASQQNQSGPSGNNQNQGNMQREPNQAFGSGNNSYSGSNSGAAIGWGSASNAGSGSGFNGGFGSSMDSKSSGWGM
GST-TDP-43 (7-240), sequence (Q13148 7-240): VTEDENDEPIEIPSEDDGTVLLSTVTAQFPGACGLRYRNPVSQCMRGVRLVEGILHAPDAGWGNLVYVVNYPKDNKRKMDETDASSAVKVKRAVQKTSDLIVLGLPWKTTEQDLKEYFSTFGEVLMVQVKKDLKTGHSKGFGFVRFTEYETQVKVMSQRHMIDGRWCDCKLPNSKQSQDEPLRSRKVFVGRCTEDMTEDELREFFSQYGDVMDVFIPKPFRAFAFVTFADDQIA
GST-TDP-43 (7-166), sequence (Q13148 7-166): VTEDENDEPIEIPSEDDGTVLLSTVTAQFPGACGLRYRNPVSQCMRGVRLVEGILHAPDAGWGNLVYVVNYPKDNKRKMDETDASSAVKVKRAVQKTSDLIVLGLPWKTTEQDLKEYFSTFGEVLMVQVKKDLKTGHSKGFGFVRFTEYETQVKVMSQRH
GST-TDP-43 (7-198), sequence (Q13148 7-198): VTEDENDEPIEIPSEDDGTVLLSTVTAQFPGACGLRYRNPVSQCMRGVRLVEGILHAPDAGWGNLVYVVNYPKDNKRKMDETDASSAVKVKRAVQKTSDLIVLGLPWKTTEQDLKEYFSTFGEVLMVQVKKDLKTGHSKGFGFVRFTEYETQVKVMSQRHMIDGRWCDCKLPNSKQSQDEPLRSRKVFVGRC
GST-TDP-43 (7-333), sequence (Q13148 7-333): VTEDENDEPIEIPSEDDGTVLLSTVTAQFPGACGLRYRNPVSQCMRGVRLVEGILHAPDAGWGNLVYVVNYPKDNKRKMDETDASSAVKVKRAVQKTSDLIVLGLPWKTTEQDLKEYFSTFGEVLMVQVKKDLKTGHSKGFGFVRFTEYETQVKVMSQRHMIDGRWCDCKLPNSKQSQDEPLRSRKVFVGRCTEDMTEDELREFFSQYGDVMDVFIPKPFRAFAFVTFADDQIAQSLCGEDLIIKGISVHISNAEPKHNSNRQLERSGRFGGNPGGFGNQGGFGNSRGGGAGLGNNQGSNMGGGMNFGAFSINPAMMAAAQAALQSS

B1: HIV-1 LTR -18/+28 (TAR DNA) WT (dsDNA)
DNA 1: CTGCTTTTTGCCTGTACTGGGTCTCTCTGGTTAGACCAGATCTGAG
DNA 2: CTCAGATCTGGTCTAACCAGAGAGACCCAGTACAGGCAAAAAGCAG
GST-TDP-43 (7-414) [1]
  binding result: binds
GST-TDP-43 (7-166)
  binding result: binds
GST-TDP-43 (7-198)
  binding result: binds
[2]
  binding result: binds
GST-TDP-43 (7-240)
  binding result: binds
GST-TDP-43 (7-333)
  binding result: binds

B2: HIV-1 LTR -18/+28 delta1 (dsDNA)
DNA 1: CTGACGTACGTACGTACTGGGTCTCTCTGGTTAGACCAGATCT
DNA 2: AGATCTGGTCTAACCAGAGAGACCCAGTACGTACGTACGTCAG
GST-TDP-43 (7-414) [3]
  binding result: no binding
[4]
  binding result: no binding

B3: HIV-1 LTR -18/+28 delta2 (dsDNA)
DNA 1: CTGCTTTTTGCCTGTACGTACATGCGTACGTTAGACCAGATCT
DNA 2: AGATCTGGTCTAACGTACGCATGTACGTACAGGCAAAAAGCAG
GST-TDP-43 (7-414) [3]
  binding result: no binding
[4]
  binding result: no binding

B4: HIV-1 LTR -18/+28 delta1+delta2 (dsDNA)
DNA 1: CTGACGTACGTACGTACGTACATGCGTACGTTACGGACCATCT
DNA 2: AGATGGTCCGTAACGTACGCATGTACGTACGTACGTACGTCAG
GST-TDP-43 (7-414) [3]
  binding result: no binding
[5]
  binding result: no binding

B5: AdMLP TATA (dsDNA)
DNA 1: AAGGGGGGCTATAAAAGGGGGTGGGGG
DNA 2: CCCCCACCCCCTTTTATAGCCCCCCTT
GST-TDP-43 (7-414) [3]
  binding result: no binding

B6: HIV-1 LTR -45/+1 (dsDNA)
DNA 1: GCGTGCCTCAGATGCTGCATATAAGCAGCAGCTGCTTTTTGCCTGTACT
DNA 2: AGTACAGGCAAAAAGCAGCTGCTGCTTATATGCAGCATCTGAGGCACGC
GST-TDP-43 (7-414) [6]
  binding result: no binding

B7: HIV-1 LTR -45/-13 (dsDNA)
DNA 1: GCGTGCCTCAGATGCTGCATATAAGCAGCTGCTTT
DNA 2: AAAGCAGCTGCTTATATGCAGCATCTGAGGCACGC
GST-TDP-43 (7-414) [7]
  binding result: no binding

B8: HIV-1 LTR +10/+50 (dsDNA)
DNA 1: GGTTAGACCAGATCTGAGCCTGGGAGCTCTCTGGCTAACTAG
DNA 2: CTAGTTAGCCAGAGAGCTCCCAGGCTCAGATCTGGTCTAACC
GST-TDP-43 (7-414) [6]
  binding result: no binding
